Source: the supplement of paper PMC9112550, “Optimization of the antimicrobial peptide Bac7 by deep mutational scanning” (BMC Biology, 2022)

Tested on: Escherichia coli TOP10
Assay: shrunken log2 fold change of peptide-encoding DNA abundance (4.5 h post-induction vs induction); higher = less antimicrobial activity (less host growth inhibition)
Details: time post-induction: 4.5 h; library: site-saturation at positions 5, 18, 19, 20
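Further: peptides expressed intracellularly from a pBAD plasmid library in pooled LB shake-flask culture, induced with 0.3% L-arabinose, DNA abundance read by NGS, three biological replicates, DESeq2 with apeglm shrinkage.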

Row | Sequence | shrunken log2 fold change
1 | RRIRNRPPRLPRPRPRPMRIPRP | 0.134
2 | RRIRDRPPRLPRPRPRPHFDPRP | 0.141
3 | RRIRFRPPRLPRPRPRPSFFPRP | -0.0473
4 | RRIRNRPPRLPRPRPRPGLHPRP | -0.0523
5 | RRIRVRPPRLPRPRPRPECGPRP | 0.691
6 | RRIRIRPPRLPRPRPRPQDMPRP | -0.0502
7 | RRIRGRPPRLPRPRPRPRSEPRP | 0.29
8 | RRIRYRPPRLPRPRPRPKVDPRP | -0.079
9 | RRIRRRPPRLPRPRPRPINDPRP | -0.219
10 | RRIRTRPPRLPRPRPRPTECPRP | -0.0493
11 | RRIRDRPPRLPRPRPRPLLGPRP | 0.356
12 | RRIRPRPPRLPRPRPRPVVLPRP | 0.00791
13 | RRIRNRPPRLPRPRPRPFSFPRP | -0.186
14 | RRIRARPPRLPRPRPRPCRAPRP | 0.261
15 | RRIRVRPPRLPRPRPRPSQKPRP | -0.0127
16 | RRIRSRPPRLPRPRPRPMLTPRP | -0.0725
17 | RRIRWRPPRLPRPRPRPIKMPRP | 0.212
18 | RRIRVRPPRLPRPRPRPCPPPRP | -0.216
19 | RRIRCRPPRLPRPRPRPLWEPRP | 0.00378
20 | RRIRARPPRLPRPRPRPQDAPRP | 0.215
21 | RRIRGRPPRLPRPRPRPQYIPRP | -0.27
22 | RRIRDRPPRLPRPRPRPTTIPRP | -0.121
23 | RRIRHRPPRLPRPRPRPSQQPRP | -0.031
24 | RRIRGRPPRLPRPRPRPDSAPRP | 0.525
25 | RRIRFRPPRLPRPRPRPIRPPRP | -0.009

Row | Sequence | shrunken log2 fold change
26 | RRIRRRPPRLPRPRPRPHHVPRP | 0.296
27 | RRIRNRPPRLPRPRPRPQHYPRP | -0.319
28 | RRIRFRPPRLPRPRPRPQVSPRP | -0.298
29 | RRIRVRPPRLPRPRPRPCSFPRP | 0.0114
30 | RRIRPRPPRLPRPRPRPDQIPRP | -0.265
31 | RRIRCRPPRLPRPRPRPKHTPRP | -0.0232
32 | RRIRPRPPRLPRPRPRPHSRPRP | -0.198
33 | RRIRDRPPRLPRPRPRPAKAPRP | 0.0972
34 | RRIRGRPPRLPRPRPRPTIEPRP | 0.673
35 | RRIRHRPPRLPRPRPRPAKHPRP | -0.0767
36 | RRIRWRPPRLPRPRPRPLKNPRP | 0.245
37 | RRIRPRPPRLPRPRPRPREPPRP | 0.0876
38 | RRIRFRPPRLPRPRPRPELIPRP | -0.308
39 | RRIRDRPPRLPRPRPRPTEHPRP | -0.109
40 | RRIRVRPPRLPRPRPRPRPFPRP | 0.351
41 | RRIRPRPPRLPRPRPRPMVIPRP | -0.0869
42 | RRIRIRPPRLPRPRPRPMQWPRP | -0.192
43 | RRIRKRPPRLPRPRPRPGPRPRP | 1.08
44 | RRIRKRPPRLPRPRPRPYHIPRP | -0.323
45 | RRIRTRPPRLPRPRPRPSCMPRP | -0.0847
46 | RRIRERPPRLPRPRPRPRRIPRP | -0.00822
47 | RRIRIRPPRLPRPRPRPIKWPRP | -0.118
48 | RRIRHRPPRLPRPRPRPEVVPRP | -0.018
49 | RRIRCRPPRLPRPRPRPWATPRP | 0.00822
50 | RRIRKRPPRLPRPRPRPKSKPRP | 0.45

Row | Sequence | shrunken log2 fold change
51 | RRIRKRPPRLPRPRPRPYCTPRP | -0.19
52 | RRIRCRPPRLPRPRPRPKEYPRP | -0.207
53 | RRIRDRPPRLPRPRPRPKSEPRP | 0.0995
54 | RRIRKRPPRLPRPRPRPGFHPRP | 0.206
55 | RRIRQRPPRLPRPRPRPGAMPRP | 0.155
56 | RRIRERPPRLPRPRPRPVTRPRP | -0.0559
57 | RRIRHRPPRLPRPRPRPGLYPRP | -0.149
58 | RRIRIRPPRLPRPRPRPLGWPRP | 0.339
59 | RRIRGRPPRLPRPRPRPMHVPRP | 0.0539
60 | RRIRCRPPRLPRPRPRPKGRPRP | -0.00803
61 | RRIRQRPPRLPRPRPRPDKFPRP | -0.513
62 | RRIRYRPPRLPRPRPRPRLMPRP | -0.0571
63 | RRIRERPPRLPRPRPRPNRNPRP | -1.09
64 | RRIRVRPPRLPRPRPRPVHFPRP | 0.13
65 | RRIRGRPPRLPRPRPRPPKQPRP | 0.292
66 | RRIRQRPPRLPRPRPRPPDSPRP | 0.377
67 | RRIRTRPPRLPRPRPRPDGKPRP | -0.41
68 | RRIRFRPPRLPRPRPRPCCYPRP | -0.251
69 | RRIRERPPRLPRPRPRPEMNPRP | 0.0387
70 | RRIRHRPPRLPRPRPRPGFCPRP | -0.0484
71 | RRIRGRPPRLPRPRPRPGSIPRP | 0.185
72 | RRIRKRPPRLPRPRPRPYNTPRP | -0.339
73 | RRIRHRPPRLPRPRPRPYKEPRP | -0.00664
74 | RRIRQRPPRLPRPRPRPMRVPRP | 0.189
75 | RRIRGRPPRLPRPRPRPHIFPRP | 0.224

Row | Sequence | shrunken log2 fold change
76 | RRIRIRPPRLPRPRPRPMNQPRP | -0.169
77 | RRIRYRPPRLPRPRPRPYMSPRP | -0.00192
78 | RRIRVRPPRLPRPRPRPLAGPRP | 0.334
79 | RRIRCRPPRLPRPRPRPRYTPRP | -0.37
80 | RRIRSRPPRLPRPRPRPKHLPRP | -0.466
81 | RRIRNRPPRLPRPRPRPISAPRP | -0.0545
82 | RRIRQRPPRLPRPRPRPCGMPRP | -0.199
83 | RRIRSRPPRLPRPRPRPGLYPRP | -0.106
84 | RRIRIRPPRLPRPRPRPLNWPRP | -0.291
85 | RRIRHRPPRLPRPRPRPAQPPRP | 0.1
86 | RRIRLRPPRLPRPRPRPLPAPRP | 0.585
87 | RRIRVRPPRLPRPRPRPAVGPRP | 0.186
88 | RRIRPRPPRLPRPRPRPKNPPRP | 0.0941
89 | RRIRERPPRLPRPRPRPRKNPRP | -0.0182
90 | RRIRVRPPRLPRPRPRPLKEPRP | 0.0279
91 | RRIRVRPPRLPRPRPRPIDNPRP | -0.447
92 | RRIRFRPPRLPRPRPRPCYVPRP | -0.0693
93 | RRIRGRPPRLPRPRPRPWAQPRP | -0.035
94 | RRIRSRPPRLPRPRPRPDCVPRP | -0.0759
95 | RRIRPRPPRLPRPRPRPFVHPRP | -0.246
96 | RRIRRRPPRLPRPRPRPAWTPRP | 1.74
97 | RRIRRRPPRLPRPRPRPYWEPRP | 0.0331
98 | RRIRARPPRLPRPRPRPQPTPRP | 0.781
99 | RRIRQRPPRLPRPRPRPSMRPRP | 0.0637
100 | RRIRCRPPRLPRPRPRPKDPPRP | 0.148

Row | Sequence | shrunken log2 fold change
101 | RRIRWRPPRLPRPRPRPWVPPRP | 0.00582
102 | RRIRLRPPRLPRPRPRPVHIPRP | -0.182
103 | RRIRTRPPRLPRPRPRPEVCPRP | 0.212
104 | RRIRGRPPRLPRPRPRPEYSPRP | 0.445
105 | RRIRDRPPRLPRPRPRPMGKPRP | 3.67
106 | RRIRKRPPRLPRPRPRPKDMPRP | 0.139
107 | RRIRSRPPRLPRPRPRPFEHPRP | -0.0715
108 | RRIRFRPPRLPRPRPRPAHDPRP | 0.0907
109 | RRIRQRPPRLPRPRPRPNFDPRP | -0.347
110 | RRIRKRPPRLPRPRPRPVQSPRP | 0.00205
111 | RRIRYRPPRLPRPRPRPVIMPRP | -0.222
112 | RRIRFRPPRLPRPRPRPPCSPRP | 0.0952
113 | RRIRNRPPRLPRPRPRPLMGPRP | -0.254
114 | RRIRKRPPRLPRPRPRPGSAPRP | 0.843
115 | RRIRARPPRLPRPRPRPAPIPRP | 0.448
116 | RRIRARPPRLPRPRPRPTIWPRP | 0.206
117 | RRIRARPPRLPRPRPRPPHGPRP | 0.788
118 | RRIRHRPPRLPRPRPRPSHMPRP | -0.856
119 | RRIRPRPPRLPRPRPRPEFWPRP | 0.583
120 | RRIRPRPPRLPRPRPRPWDPPRP | -0.0945
121 | RRIRVRPPRLPRPRPRPLFQPRP | -0.0438
122 | RRIRMRPPRLPRPRPRPCSLPRP | -0.0103
123 | RRIRDRPPRLPRPRPRPWSEPRP | -0.228
124 | RRIRHRPPRLPRPRPRPRIIPRP | -1.44
125 | RRIRNRPPRLPRPRPRPIYCPRP | -0.858
